Drawing on patent US20210340217A1, “NOVEL PEPTIDES AND COMBINATION OF PEPTIDES FOR USE IN IMMUNOTHERAPY AGAINST OVARIAN CANCER AND OTHER CANCERS” (Immatics Biotechnologies GmbH, priority 2017, published 2021), this text covers Peptide exchange for 29 substances.

The target of the experiment is HLA-B*07:02 (Homo sapiens, UniProt P01889). As to the kind of experiment: MHC binding assay (UV-ligand exchange, beta2m ELISA). To be noted: peptide exchange yield. The source says:
Candidate peptides for T cell based therapies according to the present invention were further tested for their MHC binding capacity (affinity). The individual peptide-MHC complexes were produced by UV-ligand exchange, where a UV-sensitive peptide is cleaved upon UV-irradiation, and exchanged with the peptide of interest as analyzed. Only peptide candidates that can effectively bind and stabilize the peptide-receptive MHC molecules prevent dissociation of the MHC complexes. To determine the yield of the exchange reaction, an ELISA was performed based on the detection of the light chain (β2m) of stabilized MHC complexes. The assay was performed as generally described in Rodenko et al. (Rodenko et al., 2006).
96 well MAXISorp plates (NUNC) were coated over night with 2 ug/ml streptavidin in PBS at room temperature, washed 4× and blocked for 1 h at 37° C. in 2% BSA containing blocking buffer. Refolded HLA-A*02:01/MLA-001 monomers served as standards, covering the range of 15-500 ng/ml. Peptide-MHC monomers of the UV-exchange reaction were diluted 100-fold in blocking buffer. Samples were incubated for 1 h at 37° C., washed four times, incubated with 2 ug/ml HRP conjugated anti-β2m for 1h at 37° C., washed again and detected with TMB solution that is stopped with […]. Absorption was measured at 450 nm. Candidate peptides that show a high exchange yield (preferably higher than 50%, most preferred higher than 75%) are generally preferred for a generation and production of antibodies or fragments thereof, and/or T cell receptors or fragments thereof, as they show sufficient avidity to the MHC molecules and prevent dissociation of the MHC complexes.
(In an ELISA, binding on a coated surface is turned into a signal by an enzyme label.)

Consider “134 (RPIVPGPLL; listed as Homo sapiens) [compound 134]”, for which the Peptide exchange entry is recorded as ““+++” (>50 = +++)”.

Consider “357 (SPSPVPTTL; listed as Homo sapiens) [compound 357]”, for which the Peptide exchange result is given as ““+++” (>50 = +++)”. With “317 (FPFQPGSV; listed as Homo sapiens) [compound 317]”, the Peptide exchange result was ““+++” (>50 = +++)”. “361 (SPTHVTQSL; listed as Homo sapiens) [compound 361]”: the Peptide exchange entry is reported as ““+++” (>50 = +++)”.

Consider “308 (YPEGAAYEF; listed as Homo sapiens) [compound 308]”, for which the Peptide exchange result is recorded as ““++” (>20% = ++)”. Consider “375 (AAASPLLLL; listed as Homo sapiens) [compound 375]”, for which the Peptide exchange result is ““++” (>20% = ++)”.

Consider “39 (RPAPFEVVF; listed as Homo sapiens) [compound 39]”, for which the Peptide exchange result is ““+++” (>50 = +++)”. As to “381 (LPEQTPLAF; listed as Homo sapiens) [compound 381]”, the Peptide exchange result is ““++” (>20% = ++)”. “378 (RPRSPAGQVAA; listed as Homo sapiens) [compound 378]”: the Peptide exchange result is ““+++” (>50 = +++)”. For “297 (TVREASGLL; listed as Homo sapiens) [compound 297]” the value was ““+++” (>50 = +++)”; for “356 (SPNEFYFTV; listed as Homo sapiens) [compound 356]”, ““+++” (>50 = +++)”; for “323 (RPMPNLRSV; listed as Homo sapiens) [compound 323]”, ““+++” (>50 = +++)”. For “371 (LYVDGFTHW; listed as Homo sapiens) [compound 371]” the value was ““++” (>20% = ++)”. For “350 (NPSSTTTEF; listed as Homo sapiens) [compound 350]” the value was ““+++” (>50 = +++)”; for “298 (YPTEHVQF; listed as Homo sapiens) [compound 298]”, ““++” (>20% = ++)”; for “318 (FPNRLNLEA; listed as Homo sapiens) [compound 318]”, ““+++” (>50 = +++)”. For the substance “367 (TPSVVTEGF; listed as Homo sapiens) [compound 367]”, the Peptide exchange entry is on record as ““++” (>20% = ++)”. As to “365 (TPLATTQRFTY; listed as Homo sapiens) [compound 365]”, the Peptide exchange result is ““++” (>20% = ++)”. Consider “353 (SPAMTTPSL; listed as Homo sapiens) [compound 353]”, for which the Peptide exchange entry was ““+++” (>50 = +++)”. “295 (YPLRGSSIFGL; listed as Homo sapiens) [compound 295]”: the Peptide exchange entry is reported as ““+++” (>50 = +++)”. Take “319 (SPAEPSVYATL; listed as Homo sapiens) [compound 319]”: the Peptide exchange result is on record as ““++++” (>75% = ++++)”. In the case of “122 (YPGFPQSQY; listed as Homo sapiens) [compound 122]”, the Peptide exchange entry is listed as ““++” (>20% = ++)”. The entry for “34 (LPRGPLASLL; listed as Homo sapiens) [compound 34]” is ““+++” (>50 = +++)”; for “38 (SPHPVTALLTL; listed as Homo sapiens) [compound 38]” it is ““+++” (>50 = +++)”; for “388 (SPAPLKLSRTPA; listed as Homo sapiens) [compound 388]” it is ““++” (>20% = ++)”. As for “301 (SPRRSPRISF; listed as Homo sapiens) [compound 301]”, the Peptide exchange result was ““++” (>20% = ++)”. With “313 (KVKSDRSVF; listed as Homo sapiens) [compound 313]”, the Peptide exchange entry is listed as ““+” (>10% = +)”. In the case of “41 (RVRSRISNL; listed as Homo sapiens) [compound 41]”, the Peptide exchange result is reported as ““+++” (>50 = +++)”. For “138 (SPMATTSTL; listed as Homo sapiens) [compound 138]” the value was ““+++” (>50 = +++)”.
